Results reported in the supplement of paper PMC9233669.
Variants at the floor of the assay were thinned out.

What was measured:
biotinyl-Met-oxazolone = assay: self-aminoacylation, catalytic enhancement (BMO) (fold over background); higher = more active; k-Seq, kA / k0A0; sequences stand for … in GGGAAUGGAUCCACAUCUACGAAUUC…UUCACUGCAGACUUGACGAAGCUG
Procedure, shortened: (§1)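 Catalytic enhancement equals the median kA over the uncatalyzed rate, the latter read from the low-activity peak of a bimodal Gaussian fit. Values of kA came from fitting each sequence's fraction reacted to a pseudo-first-order model, with 1000 bootstraps. Reacted RNA was captured with streptavidin and quantified by triplicate qPCR and Illumina sequencing after 90 minutes at room temperature with 2–1250 μM biotinyl-aminoacyl-oxazolone and 0.43 μM mutagenized RNA pools bearing a 21-nt variable region.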

biotinyl-Phe-oxazolone = assay: self-aminoacylation, catalytic enhancement (BFO) (fold over background); higher = more active; k-Seq, kA / k0A0; sequences stand for … in GGGAAUGGAUCCACAUCUACGAAUUC…UUCACUGCAGACUUGACGAAGCUG
Procedure, shortened: as §1

biotinyl-Ile-oxazolone = assay: self-aminoacylation, catalytic enhancement (BIO) (fold over background); higher = more active; k-Seq, kA / k0A0; sequences stand for … in GGGAAUGGAUCCACAUCUACGAAUUC…UUCACUGCAGACUUGACGAAGCUG
Procedure, shortened: as §1

biotinyl-Val-oxazolone = assay: self-aminoacylation, catalytic enhancement (BVO) (fold over background); higher = more active; k-Seq, kA / k0A0; sequences stand for … in GGGAAUGGAUCCACAUCUACGAAUUC…UUCACUGCAGACUUGACGAAGCUG
Procedure, shortened: as §1

biotinyl-Trp-oxazolone = assay: self-aminoacylation, catalytic enhancement (BWO) (fold over background); higher = more active; k-Seq, kA / k0A0; sequences stand for … in GGGAAUGGAUCCACAUCUACGAAUUC…UUCACUGCAGACUUGACGAAGCUG
Procedure, shortened: as §1

biotinyl-Leu-oxazolone = assay: self-aminoacylation, catalytic enhancement (BLO) (fold over background); higher = more active; k-Seq, kA / k0A0; sequences stand for … in GGGAAUGGAUCCACAUCUACGAAUUC…UUCACUGCAGACUUGACGAAGCUG
Procedure, shortened: as §1

Row | Sequence | self-aminoacylation (biotinyl-Met-oxazolone) | self-aminoacylation (biotinyl-Phe-oxazolone) | self-aminoacylation (biotinyl-Ile-oxazolone) | self-aminoacylation (biotinyl-Val-oxazolone) | self-aminoacylation (biotinyl-Trp-oxazolone) | self-aminoacylation (biotinyl-Leu-oxazolone)
1 | AAAUCUGCUAAUAGUCGCAAG [Fam3.1 aminoacylation ribozyme variant] | 2.01 | 19.3 | 2.48 | 2.04 | 9.08 | 
2 | AAAUUUACUAAUAGUCGCAAG [Fam3.1 aminoacylation ribozyme variant] | 2.27 | 3.14 | 2.35 | 2.21 | 2.31 | 1.89
3 | AAAUUUGCUAAAAGUCGCAAG [Fam3.1 aminoacylation ribozyme variant] | 1.93 | 2.5 | 2.08 | 1.75 | 2.75 | 2.26
4 | AAAUUUGCUAAUAGUCGCAAU [Fam3.1 aminoacylation ribozyme variant] | 2.35 | 2.52 | 2.71 | 2.13 | 3.09 | 2.33
5 | AAAUUUGCUAAUAGUGGCAAG [Fam3.1 aminoacylation ribozyme variant] | 0.697 | 0.608 | 1.01 | 0.74 | 0.533 | 0.7
6 | AAAUUUGCUGAUAGUCGCAAG [Fam3.1 aminoacylation ribozyme variant] | 1.97 | 2.14 | 1.73 | 1.69 | 2.23 | 1.86
7 | AACACCCUGGUCAUCGAGUGA [Fam2.1 aminoacylation ribozyme variant] | 7.5 | 7.58 | 4.52 | 4.39 | 8.34 | 6.79
8 | AACCACCUAGGUCAUCGGGUG [Fam2.2 aminoacylation ribozyme variant] | 5.6 | 28.8 | 3.78 | 4.48 | 6.68 | 4.62
9 | AACUUGGCUAAUAGUCGCAAG [Fam3.1 aminoacylation ribozyme variant] | 2 | 2.88 | 2.42 | 1.71 | 2.31 | 2.62
10 | AACUUUGCCAAUAGUCGCAAG [Fam3.1 aminoacylation ribozyme variant] | 2.79 | 14.7 | 2.62 | 2.64 | 3.85 | 2.81
11 | AACUUUGCGAAUAGUCGCAAG [Fam3.1 aminoacylation ribozyme variant] | 2.67 | 4.36 | 2.42 | 2.4 | 2.9 | 2.6
12 | AACUUUGCUAAAAGUCGCAAG [Fam3.1 aminoacylation ribozyme variant] | 2.47 | 6.96 | 3.11 | 2.54 | 4.13 | 2.98
13 | AACUUUGCUAAUAGUCACAAG [Fam3.1 aminoacylation ribozyme variant] | 1.47 | 3.95 | 2.2 | 2.09 | 2.52 | 1.87
14 | AACUUUGCUAAUAGUCGCAGG [Fam3.1 aminoacylation ribozyme variant] | 3.29 | 14.1 | 2.29 | 2.29 | 3.48 | 2.75
15 | AACUUUGCUAAUAGUCGCGAG [Fam3.1 aminoacylation ribozyme variant] | 2.99 | 19.5 | 3.52 | 2.76 | 3.11 | 3.74
16 | AACUUUGCUAAUAGUCGCUAG [Fam3.1 aminoacylation ribozyme variant] | 2.22 | 2.6 | 2.28 | 1.64 | 1.84 | 2.78
17 | AACUUUGCUAAUAGUCUCAAG [Fam3.1 aminoacylation ribozyme variant] | 1.39 | 3.43 | 1.47 | 1.42 | 1.5 | 1.54
18 | AACUUUGCUAUUAGUCGCAAG [Fam3.1 aminoacylation ribozyme variant] | 2.34 | 4.36 | 2.57 | 2 | 2.99 | 2.73
19 | AAGAGUGCUAAUAGUCGCAAG [Fam3.1 aminoacylation ribozyme variant] | 1.82 | 3.44 | 2.29 | 1.73 | 1.89 | 2.19
20 | AAGAUUGCUAAUACUCGCAAG [Fam3.1 aminoacylation ribozyme variant] | 1.41 | 1.48 | 1.72 | 1.37 | 1.91 | 1.24
21 | AAGAUUGCUAAUAGUCGCAGG [Fam3.1 aminoacylation ribozyme variant] | 1.49 | 7.75 | 1.34 | 1.64 | 1.83 | 2.05
22 | AAGAUUGCUAAUAGUGGCAAG [Fam3.1 aminoacylation ribozyme variant] | 0.871 | 0.997 | 0.786 | 0.702 | 0.941 | 0.906
23 | AAGAUUGCUAAUCGUCGCAAG [Fam3.1 aminoacylation ribozyme variant] | 1.57 | 1.34 | 2.12 | 1.52 | 2.1 | 1.2
24 | AAGAUUGCUAUUAGUCGCAAG [Fam3.1 aminoacylation ribozyme variant] | 1.55 | 1.79 | 1.73 | 1.6 | 1.87 | 1.62
25 | AAGAUUGGUAAUAGUCGCAAG [Fam3.1 aminoacylation ribozyme variant] | 1.75 | 1.65 | 2.04 | 1.59 | 2.54 | 2.02
26 | AAGCUUGCUAAUAGACGCAAG [Fam3.1 aminoacylation ribozyme variant] | 1.51 | 1.7 | 0.821 | 0.9 | 0.574 | 0.763

Row | Sequence | self-aminoacylation (biotinyl-Met-oxazolone) | self-aminoacylation (biotinyl-Phe-oxazolone) | self-aminoacylation (biotinyl-Ile-oxazolone) | self-aminoacylation (biotinyl-Val-oxazolone) | self-aminoacylation (biotinyl-Trp-oxazolone) | self-aminoacylation (biotinyl-Leu-oxazolone)
27 | AAGCUUGCUAAUAGUCGCCAG [Fam3.1 aminoacylation ribozyme variant] | 2.39 | 14.9 | 2.3 | 2.33 | 3.3 | 2.63
28 | AAGCUUGCUAAUAGUCGUAAG [Fam3.1 aminoacylation ribozyme variant] | 1.12 | 8.49 | 1.26 | 1.48 | 2.69 | 0.843
29 | AAGCUUGCUAAUAUUCGCAAG [Fam3.1 aminoacylation ribozyme variant] |  |  | 2.47 | 2.13 | 3.38 | 
30 | AAGCUUGCUAAUUGUCGCAAG [Fam3.1 aminoacylation ribozyme variant] | 2.38 | 2.23 | 1.96 | 1.57 | 1.99 | 2.25
31 | AAGCUUGCUAGUAGUCGCAAG [Fam3.1 aminoacylation ribozyme variant] | 1.89 | 2.3 | 1.48 | 1.33 | 0.908 | 1.43
32 | AAGCUUGCUCAUAGUCGCAAG [Fam3.1 aminoacylation ribozyme variant] | 2.05 | 2.34 | 1.99 | 1.99 | 1.59 | 1.52
33 | AAGGGUGCUAAUAGUCGCAAG [Fam3.1 aminoacylation ribozyme variant] | 1.74 | 6.2 | 1.72 | 1.36 | 2.93 | 1.5
34 | AAGGUUGCGAAUAGUCGCAAG [Fam3.1 aminoacylation ribozyme variant] | 1.37 | 6.53 | 1.64 | 1.03 | 0.982 | 1.2
35 | AAGGUUGCUAAGAGUCGCAAG [Fam3.1 aminoacylation ribozyme variant] | 0.884 | 1.9 | 1.17 | 1.03 | 1.57 | 1.1
36 | AAGGUUGCUAAUAGCCGCAAG [Fam3.1 aminoacylation ribozyme variant] | 1.06 | 1.49 | 1.57 | 1.28 | 1.41 | 1.31
37 | AAGGUUGCUAAUAGUCGCAAG [Fam3.1 aminoacylation ribozyme variant] | 1.29 | 6.56 | 1.32 | 1.23 | 2.64 | 1.25
38 | AAGGUUGCUAAUAGUCGCAUG [Fam3.1 aminoacylation ribozyme variant] | 1.34 | 2.16 | 1.66 | 1.34 | 2 | 1.45
39 | AAGGUUGCUAUUAGUCGCAAG [Fam3.1 aminoacylation ribozyme variant] | 1.3 | 2.24 | 1.66 | 1.18 | 1.53 | 1.56
40 | AAGGUUGUUAAUAGUCGCAAG [Fam3.1 aminoacylation ribozyme variant] | 1.72 | 2.51 | 1.86 | 1.39 | 1.53 | 1.69
41 | AAGUAUGCAAAUAGUCGCAAG [Fam3.1 aminoacylation ribozyme variant] | 1.06 | 1.55 | 1.17 | 1.05 | 1.76 | 1.02
42 | AAGUAUGCUAACAGUCGCAAG [Fam3.1 aminoacylation ribozyme variant] | 1.42 | 13.3 | 1.82 | 1.54 | 4.66 | 1.45
43 | AAGUCUGCCAAUAGUCGCAAG [Fam3.1 aminoacylation ribozyme variant] | 1.84 | 1.53 | 1.18 | 1.06 | 1.28 | 0.879
44 | AAGUCUGCUAAUAGUCGCAUG [Fam3.1 aminoacylation ribozyme variant] | 1.72 | 2.06 | 0.998 | 1.27 | 1.91 | 1.89
45 | AAGUCUGCUAAUGGUCGCAAG [Fam3.1 aminoacylation ribozyme variant] | 1.3 | 5.79 | 0.882 | 0.865 | 0.919 | 0.959
46 | AAGUGCGCUAAUAGUCGCAAG [Fam3.1 aminoacylation ribozyme variant] | 1.19 | 3.73 | 1.84 | 1.8 | 4.08 | 1.38
47 | AUUCCCCUGGUCAUCGAGUGG [Fam2.1 aminoacylation ribozyme variant] | 2.48 |  | 2.29 | 2.18 | 3.73 | 3.15
48 | AUUCUCCUAGGUCAUCGGCUG [Fam2.2 aminoacylation ribozyme variant] | 2.49 | 9.44 | 2.19 | 2.51 |  | 2.54
49 | CCACAAUUCAAGCAAUCGCUC [Fam1B.1 aminoacylation ribozyme variant] | 2.18 |  | 2.51 | 2.12 |  | 2.38
50 | CCACACUUCAAGCAAACGGCC [Fam1B.1 aminoacylation ribozyme variant] |  |  | 2.6 | 3.77 | 3.66 | 3.75
51 | CCACACUUCAAGCAUUCGGUU [Fam1B.1 aminoacylation ribozyme variant] | 2.33 | 7.27 | 2.29 | 2.64 |  | 2.35
52 | GAGUUUCCUAAUAGUCGCAAG [Fam3.1 aminoacylation ribozyme variant] |  | 2.31 | 2.65 | 2.08 | 2.26 | 
